Measurements as given in patent US20250218531A1 (ABSCI, published 2025).
Several values for one entry are separate records, joined by “and”; a condition that tells them apart may be missing. Identical values can stand only once.

B1: Trastuzumab HCDR3 variant AKFAYYGPYHFDP (Fab, V domains shown)
VH: EVQLVESGGGLVQPGGSLRLSCAASGFNIKDTYIHWVRQAPGKGLEWVARIYPTNGYTRYADSVKGRFTISADTSKNTAYLQMNSLRAEDTAVYYCAKFAYYGPYHFDPWGQGTLVTVSS
VL: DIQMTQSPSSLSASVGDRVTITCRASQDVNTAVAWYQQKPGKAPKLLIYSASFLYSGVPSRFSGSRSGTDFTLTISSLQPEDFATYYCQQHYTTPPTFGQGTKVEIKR
B2: Trastuzumab HCDR3 variant AKYAYYGDFWGSV (Fab, V domains shown)
VH: EVQLVESGGGLVQPGGSLRLSCAASGFNIKDTYIHWVRQAPGKGLEWVARIYPTNGYTRYADSVKGRFTISADTSKNTAYLQMNSLRAEDTAVYYCAKYAYYGDFWGSVWGQGTLVTVSS
VL: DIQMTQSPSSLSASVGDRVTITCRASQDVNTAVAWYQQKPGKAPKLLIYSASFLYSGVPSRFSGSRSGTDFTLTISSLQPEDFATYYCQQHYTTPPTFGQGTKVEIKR
B3: Trastuzumab HCDR3 variant AKYGATGWYYFDY (Fab, V domains shown)
VH: EVQLVESGGGLVQPGGSLRLSCAASGFNIKDTYIHWVRQAPGKGLEWVARIYPTNGYTRYADSVKGRFTISADTSKNTAYLQMNSLRAEDTAVYYCAKYGATGWYYFDYWGQGTLVTVSS
VL: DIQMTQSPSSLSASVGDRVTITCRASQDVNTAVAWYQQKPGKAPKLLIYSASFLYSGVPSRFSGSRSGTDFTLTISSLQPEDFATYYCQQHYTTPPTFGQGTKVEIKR
B4: Trastuzumab HCDR3 variant AKYGGVGYYAMDY (Fab, V domains shown)
VH: EVQLVESGGGLVQPGGSLRLSCAASGFNIKDTYIHWVRQAPGKGLEWVARIYPTNGYTRYADSVKGRFTISADTSKNTAYLQMNSLRAEDTAVYYCAKYGGVGYYAMDYWGQGTLVTVSS
VL: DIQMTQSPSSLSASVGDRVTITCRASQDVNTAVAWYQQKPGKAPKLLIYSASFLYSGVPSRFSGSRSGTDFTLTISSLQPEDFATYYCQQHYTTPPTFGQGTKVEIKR
B5: Trastuzumab HCDR3 variant AKYINAYSYAFFD (Fab, V domains shown)
VH: EVQLVESGGGLVQPGGSLRLSCAASGFNIKDTYIHWVRQAPGKGLEWVARIYPTNGYTRYADSVKGRFTISADTSKNTAYLQMNSLRAEDTAVYYCAKYINAYSYAFFDWGQGTLVTVSS
VL: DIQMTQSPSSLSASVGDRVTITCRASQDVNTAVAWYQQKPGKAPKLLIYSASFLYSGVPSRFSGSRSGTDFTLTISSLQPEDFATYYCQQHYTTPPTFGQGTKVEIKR
B6: Trastuzumab HCDR3 variant AKYLGQEAYAYFS (Fab, V domains shown)
VH: EVQLVESGGGLVQPGGSLRLSCAASGFNIKDTYIHWVRQAPGKGLEWVARIYPTNGYTRYADSVKGRFTISADTSKNTAYLQMNSLRAEDTAVYYCAKYLGQEAYAYFSWGQGTLVTVSS
VL: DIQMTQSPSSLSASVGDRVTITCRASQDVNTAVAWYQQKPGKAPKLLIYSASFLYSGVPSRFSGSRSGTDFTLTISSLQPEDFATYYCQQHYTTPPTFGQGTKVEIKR
B7: Trastuzumab HCDR3 variant ANDIYIQGYDLNR (Fab, V domains shown)
VH: EVQLVESGGGLVQPGGSLRLSCAASGFNIKDTYIHWVRQAPGKGLEWVARIYPTNGYTRYADSVKGRFTISADTSKNTAYLQMNSLRAEDTAVYYCANDIYIQGYDLNRWGQGTLVTVSS
VL: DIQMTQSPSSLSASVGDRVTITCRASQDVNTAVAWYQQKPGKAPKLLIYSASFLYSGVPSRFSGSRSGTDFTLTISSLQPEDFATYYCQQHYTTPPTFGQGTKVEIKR
B8: Trastuzumab HCDR3 variant ARENDGSPGSFEY (Fab, V domains shown)
VH: EVQLVESGGGLVQPGGSLRLSCAASGFNIKDTYIHWVRQAPGKGLEWVARIYPTNGYTRYADSVKGRFTISADTSKNTAYLQMNSLRAEDTAVYYCARENDGSPGSFEYWGQGTLVTVSS
VL: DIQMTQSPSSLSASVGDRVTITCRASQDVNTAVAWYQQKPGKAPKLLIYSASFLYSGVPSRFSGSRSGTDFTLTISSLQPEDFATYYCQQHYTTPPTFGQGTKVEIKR
B9: Trastuzumab HCDR3 variant ARHFGVASYSFDY (Fab, V domains shown)
VH: EVQLVESGGGLVQPGGSLRLSCAASGFNIKDTYIHWVRQAPGKGLEWVARIYPTNGYTRYADSVKGRFTISADTSKNTAYLQMNSLRAEDTAVYYCARHFGVASYSFDYWGQGTLVTVSS
VL: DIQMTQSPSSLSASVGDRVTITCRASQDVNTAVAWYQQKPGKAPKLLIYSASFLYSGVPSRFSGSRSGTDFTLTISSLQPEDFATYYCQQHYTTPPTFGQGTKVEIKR
B10: Trastuzumab HCDR3 variant ARNYYDLYYYFDY (Fab, V domains shown)
VH: EVQLVESGGGLVQPGGSLRLSCAASGFNIKDTYIHWVRQAPGKGLEWVARIYPTNGYTRYADSVKGRFTISADTSKNTAYLQMNSLRAEDTAVYYCARNYYDLYYYFDYWGQGTLVTVSS
VL: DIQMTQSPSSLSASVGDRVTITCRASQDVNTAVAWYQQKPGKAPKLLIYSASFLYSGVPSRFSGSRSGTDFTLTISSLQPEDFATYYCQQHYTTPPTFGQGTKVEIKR
B11: Trastuzumab HCDR3 variant ARWDSGGPYYFDS (Fab, V domains shown)
VH: EVQLVESGGGLVQPGGSLRLSCAASGFNIKDTYIHWVRQAPGKGLEWVARIYPTNGYTRYADSVKGRFTISADTSKNTAYLQMNSLRAEDTAVYYCARWDSGGPYYFDSWGQGTLVTVSS
VL: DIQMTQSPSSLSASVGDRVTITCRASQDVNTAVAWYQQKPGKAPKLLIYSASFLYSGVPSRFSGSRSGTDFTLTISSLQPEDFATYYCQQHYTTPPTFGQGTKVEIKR
B12: Trastuzumab HCDR3 variant ARWGEFGPYYFDY (Fab, V domains shown)
VH: EVQLVESGGGLVQPGGSLRLSCAASGFNIKDTYIHWVRQAPGKGLEWVARIYPTNGYTRYADSVKGRFTISADTSKNTAYLQMNSLRAEDTAVYYCARWGEFGPYYFDYWGQGTLVTVSS
VL: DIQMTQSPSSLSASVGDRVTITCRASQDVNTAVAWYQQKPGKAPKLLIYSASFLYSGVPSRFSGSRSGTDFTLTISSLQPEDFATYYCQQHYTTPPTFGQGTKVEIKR
B13: Trastuzumab HCDR3 variant ARWGGPGYYAFVW (Fab, V domains shown)
VH: EVQLVESGGGLVQPGGSLRLSCAASGFNIKDTYIHWVRQAPGKGLEWVARIYPTNGYTRYADSVKGRFTISADTSKNTAYLQMNSLRAEDTAVYYCARWGGPGYYAFVWWGQGTLVTVSS
VL: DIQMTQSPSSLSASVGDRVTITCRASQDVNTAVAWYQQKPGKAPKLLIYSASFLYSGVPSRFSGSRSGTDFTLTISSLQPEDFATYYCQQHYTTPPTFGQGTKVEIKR
B14: Trastuzumab HCDR3 variant ARWGGYGYYYMDV (Fab, V domains shown)
VH: EVQLVESGGGLVQPGGSLRLSCAASGFNIKDTYIHWVRQAPGKGLEWVARIYPTNGYTRYADSVKGRFTISADTSKNTAYLQMNSLRAEDTAVYYCARWGGYGYYYMDVWGQGTLVTVSS
VL: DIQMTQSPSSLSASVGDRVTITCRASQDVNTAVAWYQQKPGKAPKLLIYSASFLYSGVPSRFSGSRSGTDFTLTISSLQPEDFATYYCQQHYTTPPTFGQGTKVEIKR
B15: Trastuzumab HCDR3 variant ARWGSIGYYAFDH (Fab, V domains shown)
VH: EVQLVESGGGLVQPGGSLRLSCAASGFNIKDTYIHWVRQAPGKGLEWVARIYPTNGYTRYADSVKGRFTISADTSKNTAYLQMNSLRAEDTAVYYCARWGSIGYYAFDHWGQGTLVTVSS
VL: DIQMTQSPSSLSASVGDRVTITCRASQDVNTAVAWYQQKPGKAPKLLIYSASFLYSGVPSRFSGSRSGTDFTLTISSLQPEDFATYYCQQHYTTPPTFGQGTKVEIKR
B16: Trastuzumab HCDR3 variant ARWGYDYYYAMDY (Fab, V domains shown)
VH: EVQLVESGGGLVQPGGSLRLSCAASGFNIKDTYIHWVRQAPGKGLEWVARIYPTNGYTRYADSVKGRFTISADTSKNTAYLQMNSLRAEDTAVYYCARWGYDYYYAMDYWGQGTLVTVSS
VL: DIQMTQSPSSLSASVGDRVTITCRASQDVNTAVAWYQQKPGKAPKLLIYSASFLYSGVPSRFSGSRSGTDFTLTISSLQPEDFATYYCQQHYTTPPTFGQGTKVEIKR
B17: Trastuzumab HCDR3 variant ARWGYDYYYYFDV (Fab, V domains shown)
VH: EVQLVESGGGLVQPGGSLRLSCAASGFNIKDTYIHWVRQAPGKGLEWVARIYPTNGYTRYADSVKGRFTISADTSKNTAYLQMNSLRAEDTAVYYCARWGYDYYYYFDVWGQGTLVTVSS
VL: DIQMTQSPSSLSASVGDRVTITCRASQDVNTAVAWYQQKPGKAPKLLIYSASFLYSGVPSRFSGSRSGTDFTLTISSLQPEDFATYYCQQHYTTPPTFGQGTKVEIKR
B18: Trastuzumab HCDR3 variant ARWGYGGYYYFDY (Fab, V domains shown)
VH: EVQLVESGGGLVQPGGSLRLSCAASGFNIKDTYIHWVRQAPGKGLEWVARIYPTNGYTRYADSVKGRFTISADTSKNTAYLQMNSLRAEDTAVYYCARWGYGGYYYFDYWGQGTLVTVSS
VL: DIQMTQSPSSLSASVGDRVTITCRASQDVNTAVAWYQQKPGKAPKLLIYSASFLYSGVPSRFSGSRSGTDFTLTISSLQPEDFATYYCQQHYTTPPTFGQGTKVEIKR
B19: Trastuzumab HCDR3 variant ARWGYGYSYYFDV (Fab, V domains shown)
VH: EVQLVESGGGLVQPGGSLRLSCAASGFNIKDTYIHWVRQAPGKGLEWVARIYPTNGYTRYADSVKGRFTISADTSKNTAYLQMNSLRAEDTAVYYCARWGYGYSYYFDVWGQGTLVTVSS
VL: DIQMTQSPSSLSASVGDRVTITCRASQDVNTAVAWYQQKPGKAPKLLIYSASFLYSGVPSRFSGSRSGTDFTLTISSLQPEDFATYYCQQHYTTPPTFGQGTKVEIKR
B20: Trastuzumab HCDR3 variant ARWGYSGWYVMDY (Fab, V domains shown)
VH: EVQLVESGGGLVQPGGSLRLSCAASGFNIKDTYIHWVRQAPGKGLEWVARIYPTNGYTRYADSVKGRFTISADTSKNTAYLQMNSLRAEDTAVYYCARWGYSGWYVMDYWGQGTLVTVSS
VL: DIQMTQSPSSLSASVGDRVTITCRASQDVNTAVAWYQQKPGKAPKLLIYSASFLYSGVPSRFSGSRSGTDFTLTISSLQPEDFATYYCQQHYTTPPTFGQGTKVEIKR
B21: Trastuzumab HCDR3 variant ARWGYYGNYYFDY (Fab, V domains shown)
VH: EVQLVESGGGLVQPGGSLRLSCAASGFNIKDTYIHWVRQAPGKGLEWVARIYPTNGYTRYADSVKGRFTISADTSKNTAYLQMNSLRAEDTAVYYCARWGYYGNYYFDYWGQGTLVTVSS
VL: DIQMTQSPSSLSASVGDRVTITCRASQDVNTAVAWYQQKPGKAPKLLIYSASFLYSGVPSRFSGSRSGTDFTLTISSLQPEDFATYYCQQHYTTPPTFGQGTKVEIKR
B22: Trastuzumab HCDR3 variant ARWLAGYNYYFDV (Fab, V domains shown)
VH: EVQLVESGGGLVQPGGSLRLSCAASGFNIKDTYIHWVRQAPGKGLEWVARIYPTNGYTRYADSVKGRFTISADTSKNTAYLQMNSLRAEDTAVYYCARWLAGYNYYFDVWGQGTLVTVSS
VL: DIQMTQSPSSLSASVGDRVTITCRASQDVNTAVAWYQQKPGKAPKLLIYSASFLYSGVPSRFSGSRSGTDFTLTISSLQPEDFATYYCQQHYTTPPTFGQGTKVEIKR
B23: Trastuzumab HCDR3 variant ARWLGEGYYNFDY (Fab, V domains shown)
VH: EVQLVESGGGLVQPGGSLRLSCAASGFNIKDTYIHWVRQAPGKGLEWVARIYPTNGYTRYADSVKGRFTISADTSKNTAYLQMNSLRAEDTAVYYCARWLGEGYYNFDYWGQGTLVTVSS
VL: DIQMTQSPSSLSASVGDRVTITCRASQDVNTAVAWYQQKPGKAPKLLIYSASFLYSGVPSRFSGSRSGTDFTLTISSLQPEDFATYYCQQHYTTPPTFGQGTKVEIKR
B24: Trastuzumab HCDR3 variant ARWLGSGYYWFDY (Fab, V domains shown)
VH: EVQLVESGGGLVQPGGSLRLSCAASGFNIKDTYIHWVRQAPGKGLEWVARIYPTNGYTRYADSVKGRFTISADTSKNTAYLQMNSLRAEDTAVYYCARWLGSGYYWFDYWGQGTLVTVSS
VL: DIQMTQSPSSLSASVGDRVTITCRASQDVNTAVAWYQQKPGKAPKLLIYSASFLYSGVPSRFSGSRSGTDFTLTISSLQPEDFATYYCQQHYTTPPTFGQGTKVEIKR
B25: Trastuzumab HCDR3 variant ARWLRALGYYMDY (Fab, V domains shown)
VH: EVQLVESGGGLVQPGGSLRLSCAASGFNIKDTYIHWVRQAPGKGLEWVARIYPTNGYTRYADSVKGRFTISADTSKNTAYLQMNSLRAEDTAVYYCARWLRALGYYMDYWGQGTLVTVSS
VL: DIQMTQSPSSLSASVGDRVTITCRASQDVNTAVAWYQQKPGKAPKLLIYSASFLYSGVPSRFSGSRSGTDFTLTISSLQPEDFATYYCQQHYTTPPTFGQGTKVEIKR
B26: Trastuzumab HCDR3 variant ARWPFYGPYNYDY (Fab, V domains shown)
VH: EVQLVESGGGLVQPGGSLRLSCAASGFNIKDTYIHWVRQAPGKGLEWVARIYPTNGYTRYADSVKGRFTISADTSKNTAYLQMNSLRAEDTAVYYCARWPFYGPYNYDYWGQGTLVTVSS
VL: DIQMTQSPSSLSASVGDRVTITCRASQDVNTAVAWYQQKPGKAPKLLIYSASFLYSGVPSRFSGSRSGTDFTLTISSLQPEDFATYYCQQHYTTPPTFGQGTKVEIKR
B27: Trastuzumab HCDR3 variant ARWPGYGSYYMDV (Fab, V domains shown)
VH: EVQLVESGGGLVQPGGSLRLSCAASGFNIKDTYIHWVRQAPGKGLEWVARIYPTNGYTRYADSVKGRFTISADTSKNTAYLQMNSLRAEDTAVYYCARWPGYGSYYMDVWGQGTLVTVSS
VL: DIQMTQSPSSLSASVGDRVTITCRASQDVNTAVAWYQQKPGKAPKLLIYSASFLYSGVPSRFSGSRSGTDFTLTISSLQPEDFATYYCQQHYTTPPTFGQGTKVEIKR
B28: Trastuzumab HCDR3 variant ARWRGDGGYYFDY (Fab, V domains shown)
VH: EVQLVESGGGLVQPGGSLRLSCAASGFNIKDTYIHWVRQAPGKGLEWVARIYPTNGYTRYADSVKGRFTISADTSKNTAYLQMNSLRAEDTAVYYCARWRGDGGYYFDYWGQGTLVTVSS
VL: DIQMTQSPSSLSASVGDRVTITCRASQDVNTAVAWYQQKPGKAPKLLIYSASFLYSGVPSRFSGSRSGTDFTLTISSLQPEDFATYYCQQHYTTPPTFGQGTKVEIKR
B29: Trastuzumab HCDR3 variant ARWTERGFYSFDI (Fab, V domains shown)
VH: EVQLVESGGGLVQPGGSLRLSCAASGFNIKDTYIHWVRQAPGKGLEWVARIYPTNGYTRYADSVKGRFTISADTSKNTAYLQMNSLRAEDTAVYYCARWTERGFYSFDIWGQGTLVTVSS
VL: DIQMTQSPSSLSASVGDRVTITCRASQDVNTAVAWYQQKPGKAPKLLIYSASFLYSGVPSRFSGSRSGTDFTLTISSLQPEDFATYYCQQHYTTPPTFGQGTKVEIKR
B30: Trastuzumab HCDR3 variant ARWWGGGAYYFDY (Fab, V domains shown)
VH: EVQLVESGGGLVQPGGSLRLSCAASGFNIKDTYIHWVRQAPGKGLEWVARIYPTNGYTRYADSVKGRFTISADTSKNTAYLQMNSLRAEDTAVYYCARWWGGGAYYFDYWGQGTLVTVSS
VL: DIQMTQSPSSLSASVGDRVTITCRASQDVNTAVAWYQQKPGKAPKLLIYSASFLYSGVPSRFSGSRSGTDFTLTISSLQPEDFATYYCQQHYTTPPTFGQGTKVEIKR
B31: Trastuzumab HCDR3 variant ARWYGGGYYYMDY (Fab, V domains shown)
VH: EVQLVESGGGLVQPGGSLRLSCAASGFNIKDTYIHWVRQAPGKGLEWVARIYPTNGYTRYADSVKGRFTISADTSKNTAYLQMNSLRAEDTAVYYCARWYGGGYYYMDYWGQGTLVTVSS
VL: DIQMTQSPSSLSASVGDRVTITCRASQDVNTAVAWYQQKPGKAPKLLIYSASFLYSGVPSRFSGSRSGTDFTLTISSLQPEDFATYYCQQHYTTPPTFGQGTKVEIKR

The binders below were run against T1, HER2 (human epidermal growth factor receptor 2) (human, UniProt P04626 23-629) (assay: SPR).
T1 construct: also called Antigen: HER2

Binder	Kd	log(KD (M))
B1	10.1 nM	-7.99
B2	17.5 nM	-7.76
B3	14.1 nM	-7.85
B4	25.2 nM	-7.6
B5	17 nM and 16.9 nM	-7.77
B6	14.9 nM	-7.83
B7	3.99 nM	-8.4
B8	23.1 nM	-7.64
B9	13.9 nM	-7.86
B10	8.41 nM	-8.08
B11	15.4 nM	-7.81
B12	9.24 nM	-8.03
B13	8.08 nM	-8.09
B14	8.78 nM	-8.06
B15	20.5 nM	-7.69
B16	19.4 nM	-7.71

Binder	Kd	log(KD (M))
B17	26.7 nM	-7.57
B18	19.1 nM	-7.72
B19	21.1 nM	-7.68
B20	6.93 nM	-8.16
B21	13.4 nM	-7.87
B22	15.7 nM	-7.8
B23	3.42 nM	-8.47
B24	10.9 nM	-7.96
B25	15.9 nM and 15.8 nM	-7.8
B26	2.64 nM	-8.58
B27	4.83 nM	-8.32
B28	13.1 nM	-7.88
B29	9.28 nM	-8.03
B30	14.9 nM	-7.83
B31	11.8 nM	-7.93
